The results in this text go back to IntAct's records for PubMed 14675534.

The chains are these.
B1: Partitioning defective protein 3 (Caenorhabditis elegans), Q17353 (parent)
chain: MSASSTSSSSTSCPEGGEPSGSCKSSDEGESTLKKRMQQYGIASGYANSSISTLDRSQYQSLPLNGTRRVTVQFGRMKIVVPWKESDQTVGQLADAALLRYKKARGMANEDRIHVHRLECASDGGILDMDDVLEEVFDLNYDQILAITDEANGGSTTPTYSQIQKQQHHYAQPLPYARKFDGGPSTPIASAFGSVTVNHQAHRAASPYNVGFARSNSRDFAPQPTHSKERRDSVVEVSSFDQIPQSGLRVSTPKPSRQSEDVIDGKPMNQPILRSSLRTEASGSRTEEATPVKQSRVTLSPEVEKKLAEQDERKSERRKHYDKNPGRFARGSDRKSRITDALLDARDRIADQLESQNPAEETKSQMIRVKIDQGPMPGTSLVTFPPIPEKSENEKQLGIEVNAVFDESSELPGTSEPTKLSSVQIMKIEDGGRIAKDGRIRVGDCIVAIDGKPVDQMSIIRVRASISDLAAVTSRPVTLIINRSLESFLEQESSAKPIQSALQQANTQYIGHTTVVELIKSSNGFGFTVTGRETAKGERLFYIGTVKPYGVALGHLKSGDRLLEINGTPTGQWTQSEIVEKLKETMVGEKIKFLVSRVSQSAIMSTSASSENKENEETLKVVEEEKIPQKLPLPALMTPPVPKDTPALSPSGASRFEIVIPFINGSSSAGLGVSLKARVSKKSNGSKVDCGIFIKNVMHGGAAFKEGGLRVDDRIVGVEDIDLEPLDNREAQAALAKKLKEVGMISSNVRLTISRYNECNPGQISRDLSRITVDASSPSPSSRMSSHTAPDSLLPSPATRGTSSSGADSSHSRQSSASSAVPAVPARLTERDSIVSDGTSRNDESELPDSADPFNREGLGRKSLSEKRGMGAAADPQHIKLFQDIKHQRQNSAPTSSTQKRSKSQPRSSSQRNYRSPMKLVDLPTTAAASASTNSQNLDDSDMLNRRSQSMESINRPVESILRGTGQIPTGSSSKVQFMQAASPDQHPFPPGAALLRLKNEESRSRDKSRRKSMGNPFSAMRNFFGFGSKSRDASPEKTPTESVQLRSVERPKSIIDERNNGSSERAPPPLPPHQSQRRGSGGNVFVDYGEPYGLIPQYPHNTTSGYESYADSELYDRYAAHRYHPRGGPIIDEDEYIYRQQSTSGNSPINTSSYVNYGLPASNAYHVGSRIPPQTSSGSISKTSGAMRRVYPAEYDEDVAYHQQIPQQSTRYQQGSGSGRGNADYHHMFNSWFAYTGGGAVGAAPVIKSSYGSSPVRIAAASAIERGESFVVEPVSGSSASATDRRGRSTSSGAVASGSSSTGFQYAAKEKYADARSGKFNGGSTRLFIPRHGGGLSAAAFATNFGGEAYETRGGGAGGSPSQYRRRDQGPPHRFPQY
partner: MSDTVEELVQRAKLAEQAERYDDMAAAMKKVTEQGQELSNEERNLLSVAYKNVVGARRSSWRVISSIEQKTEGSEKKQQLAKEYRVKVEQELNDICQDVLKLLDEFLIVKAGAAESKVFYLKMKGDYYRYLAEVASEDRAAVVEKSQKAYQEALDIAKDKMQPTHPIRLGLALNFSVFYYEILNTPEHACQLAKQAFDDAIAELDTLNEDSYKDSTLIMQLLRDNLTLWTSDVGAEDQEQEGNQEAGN

In this assay the parent is B1. The following applies: with 14331_caeel par-5, P41932.
With S960A, the “effect of a mutation on the interaction” value is on record as “decreasing interaction”.
